The text below walks through data of publication PMC7794297.

Substrate in the data set: OC[C@H]1O[C@@H](O)[C@H](O)[C@@H](O)[C@@H]1O
As to the kind of experiment: GOx activity assay, glucose oxidase-horseradish peroxidase coupled system with o-dianisidine. Type of data set: biochemical, Aspergillus niger. To be noted: other: control, glucose conversion; 37.0 °C.

B1: glucose oxidase (GOx) (Aspergillus niger) (protein)
chain: LPHYIRSNGIEASLLTDPKDVSGRTVDYIIAGGGLTGLTTAARLTENPNISVLVIESGSYESDRGPIIEDLNAYGDIFGSSVDHAYETVELATNNQTALIRSGNGLGGSTLVNGGTWTRPHKAQVDSWETVFGNEGWNWDNVAAYSLQAERARAPNAKQIAAGHYFNASCHGVNGTVHAGPRDTGDDYSPIVKALMSAVEDRGVPTKKDFGCGDPHGVSMFPNTLHEDQVRSDAAREWLLPNYQRPNLQVLTGQYVGKVLLSQNGTTPRAVGVEFGTHKGNTHNVYAKHEVLLAAGSAVSPTILEYSGIGMKSILEPLGIDTVVDLPVGLNLQDQTTATVRSRITSAGAGQGQAAWFATFNETFGDYSEKAHELLNTKLEQWAEEAVARGGFHNTTALLIQYENYRDWIVNHNVAYSELFLDTAGVASFDVWDLLPFTRGYVHILDKDPYLHHFAYDPQYFLNELDLLGQAAATQLARNISNSGAMQTYFAGETIPGDNLAYDADLSAWTEYIPYHFRPNYHGVGTCSMMPKEMGGVVDNAARVYGVQGLRVIDGSIPPTQMSSHVMTVFYAMALKISDAILEDYASMQ
notes: purchased Sigma Aldrich
Take B1: the Km (usually the concentration of substrate that gives half-maximal velocity) is 15 ± 2 mM and the kcat – broadly, the maximal rate divided by the concentration of active sites – came to 0.00233 ± 0.00017 s⁻¹.
